Source: publication doi:10.1101/2021.12.30.474520, “Substrate Specificity for Human Histidine Methyltransferase SETD3” (bioRxiv, 2021)
Ends that are not written are not given here.

What was measured:
[1] = molecular target: T1, human SETD3 (residues 1-497) (human, UniProt Q86TU7 1-497); assay: ITC; peptide (0.5-1 mM) titrated into SETD3 (0.05 mM) pre-incubated with SAH (1:10); 25 °C; 20 mM Tris-HCl pH 8.0, 150 mM NaCl; one set of binding sites model; settings: both partners purified
T1 construct: The methods describe one recombinant human SETD3 with an N-terminal His6-tag without giving limits; Whether that protocol and tag apply to the 1-497 construct used for ITC and crystals is surmised; In ITC and in the crystals SETD3 was pre-incubated with SAH or sinefungin (SFG) at 1:10; also called SETD3_(1-497); histidine methyltransferase SETD3
T1 sequence (looked up): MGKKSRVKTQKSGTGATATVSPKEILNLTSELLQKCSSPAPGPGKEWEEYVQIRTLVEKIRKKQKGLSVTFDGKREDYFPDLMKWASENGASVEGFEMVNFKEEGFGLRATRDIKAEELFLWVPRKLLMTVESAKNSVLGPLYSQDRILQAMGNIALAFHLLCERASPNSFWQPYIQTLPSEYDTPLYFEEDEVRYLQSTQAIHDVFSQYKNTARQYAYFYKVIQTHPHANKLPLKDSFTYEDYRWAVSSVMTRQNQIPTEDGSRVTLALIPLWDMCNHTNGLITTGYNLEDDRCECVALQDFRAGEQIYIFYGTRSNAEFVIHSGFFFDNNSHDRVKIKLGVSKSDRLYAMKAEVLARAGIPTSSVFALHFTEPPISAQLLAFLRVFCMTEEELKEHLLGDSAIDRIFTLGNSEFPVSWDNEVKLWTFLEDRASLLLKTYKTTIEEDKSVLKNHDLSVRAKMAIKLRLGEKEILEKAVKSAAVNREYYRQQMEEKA

[2] = molecular target: T1, human SETD3 (residues 1-497); assay: ITC; peptide (0.5-1 mM) titrated into SETD3 (0.05 mM) pre-incubated with sinefungin (SFG) (1:10); 25 °C; 20 mM Tris-HCl pH 8.0, 150 mM NaCl; one set of binding sites model; settings: both partners purified

B1: β-actin peptide, residues 66-81, with His73 (βA-His73) (peptide, UniProt P60709 66-81, looked up)
peptide: TLKYPIEHGIVTNWDD-NH2
notes: β-actin, human, 16-mer, residues 66-81; Made on Rink amide resin, so a C-terminal amide is surmised; also called wild type βA-His73; wild type β-actin peptide; source: synthetic peptide (microwave-assisted SPPS on Rink amide resin, RP-HPLC)
A Kd [1] of 700 nM and a Kd [2] of 1000 nM were found for B1 in this work.
